Seven molecules from publication PMC11528121, “Structural basis of the bacterial flagellar motor rotational switching” (Cell Research, 2024) can be followed below.

Broadly, the stoichiometry N is the number of molecules, sites or subunits per partner or assembly.

B6: FliF (natural protein, UniProt P15928 1-560, looked up)
chain: MSATASTATQPKPLEWLNRLRANPRIPLIVAGSAAVAIVVAMVLWAKTPDYRTLFSNLSDQDGGAIVAQLTQMNIPYRFANGSGAIEVPADKVHELRLRLAQQGLPKGGAVGFELLDQEKFGISQFSEQVNYQRALEGELARTIETLGPVKSARVHLAMPKPSLFVREQKSPSASVTVTLEPGRALDEGQISAVVHLVSSAVAGLPPGNVTLVDQSGHLLTQSNTSGRDLNDAQLKFANDVESRIQRRIEAILSPIVGNGNVHAQVTAQLDFANKEQTEEHYSPNGDASKATLRSRQLNISEQVGAGYPGGVPGALSNQPAPPNEAPIATPPTNQQNAQNTPQTSTSTNSNSAGPRSTQRNETSNYEVDRTIRHTKMNVGDIERLSVAVVVNYKTLADGKPLPLTADQMKQIEDLTREAMGFSDKRGDTLNVVNSPFSAVDNTGGELPFWQQQSFIDQLLAAGRWLLVLVVAWILWRKAVRPQLTRRVEEAKAAQEQAQVRQETEEAVEVRLSKDEQLQQRRANQRLGAEVMSQRIREMSDNDPRVVALVIRQWMSNDHE
notes: FliF, MS ring protein, Salmonella Typhimurium LT2; RBM1, RBM2, RBM3, β-collar, C-terminal region FliFC; Subunit of the purified complex m8; 34 copies in the MS ring; also called FliFC; MS ring protein
B7: FliM (natural protein, UniProt P26418 1-334, looked up)
chain: MGDSILSQAEIDALLNGDSDTKDEPTPGIASDSDIRPYDPNTQRRVVRERLQALEIINERFARQFRMGLFNLLRRSPDITVGAIRIQPYHEFARNLPVPTNLNLIHLKPLRGTGLVVFSPSLVFIAVDNLFGGDGRFPTKVEGREFTHTEQRVINRMLKLALEGYSDAWKAINPLEVEYVRSEMQVKFTNITTSPNDIVVNTPFHVEIGNLTGEFNICLPFSMIEPLRELLVNPPLENSRHEDQNWRDNLVRQVQHSELELVANFADIPLRLSQILKLKPGDVLPIEKPDRIIAHVDGVPVLTSQYGTVNGQYALRVEHLINPILNSLNEEQPK
notes: FliM, flagellar motor switch protein of the C ring, Salmonella Typhimurium LT2; domains FliMN, FliMM, FliMC; Subunit of the purified complex m8; 34 copies in the C ring; also called FliMN; FliMM

The target of data set [1] is B6. The experiment in a line: cryo-EM structure; basal body–hook complex in the default CCW state purified from S. Typhimurium ΔfliCD in TET buffer (10 mM Tris-HCl pH 8.0, 5 mM EDTA, 0.1% Triton X-100); C ring C34 map 5.9 Å, four protomers 4.0 Å, whole complex 7.4 Å, local maps 3.0–4.3 Å. The conditions noted are these: both partners purified.
Data set [2] concerns the target B6. The experiment in a line: cryo-EM structure; 5 μL purified CCW basal body–hook complex mixed with 1 μL CheY** (2 mg/mL), 15 min at room temperature, 1.5 h on ice; CW state; C ring C34 map 5.6 Å, four protomers 4.4 Å, whole complex 4.3 Å, local maps 2.8–3.8 Å. The conditions noted are these: both partners purified.
Data set [3] deals with B7. The experiment in a line: cryo-EM structure; basal body–hook complex in the default CCW state purified from S. Typhimurium ΔfliCD in TET buffer (10 mM Tris-HCl pH 8.0, 5 mM EDTA, 0.1% Triton X-100); C ring C34 map 5.9 Å, four protomers 4.0 Å, whole complex 7.4 Å, local maps 3.0–4.3 Å. The conditions noted are these: both partners purified.
Data set [4] concerns the molecule itself. The data set is described as above.
Data set [5] has as its target B7. The experiment in a line: cryo-EM structure; 5 μL purified CCW basal body–hook complex mixed with 1 μL CheY** (2 mg/mL), 15 min at room temperature, 1.5 h on ice; CW state; C ring C34 map 5.6 Å, four protomers 4.4 Å, whole complex 4.3 Å, local maps 2.8–3.8 Å. The following applies: both partners purified.
In data set [6] the target is T1, C ring-containing flagellar basal body–hook complex in the default CCW state (Salmonella enterica serovar Typhimurium …, UniProt P0A1J9 1-331; P26418 1-334; P26419 1-137; P15928 1-560; P54700 22-245; P54702 …).
T1 construct: FliG, C ring, Salmonella Typhimurium LT2; FliM, C ring, Salmonella Typhimurium LT2; FliN, C ring, Salmonella Typhimurium LT2; FliF, MS ring, Salmonella Typhimurium LT2; FliP, export apparatus, Salmonella Typhimurium LT2; FliR, export apparatus, Salmonella Typhimurium LT2; FliQ, export apparatus, Salmonella Typhimurium LT2; FliE, rod, Salmonella Typhimurium LT2; FlgB, rod, Salmonella Typhimurium …
The data set is described as above. The conditions noted are these: both partners purified.

B1: FliE (natural protein, UniProt P26462 1-104, looked up)
chain: MAAIQGIEGVISQLQATAMAARGQDTHSQSTVSFAGQLHAALDRISDRQAAARVQAEKFTLGEPGIALNDVMADMQKASVSMQMGIQVRNKLVAAYQEVMSMQV
notes: FliE, rod protein of the flagellar basal body, Salmonella Typhimurium LT2; Subunit of the purified complex m8; 6 copies in the rod; also called FliE^6
Regarding B1, in the data set with FliF [1], the binding result is on record as “binds”.

B2: FlgC (natural protein)
chain: MALLNIFDIAGSALAAQSKRLNVAASNLANADSVTGPDGQPYRAKQVVFQVDAAPGQATGGVKVASVIESQAPEKLVYEPGNPLADANGYVKMPNVDVVGEMVNTMSASRSYQANIEVLNTVKSMMLKTLTLGQ
notes: FlgC, proximal rod protein of the flagellar basal body, Salmonella Typhimurium LT2; Subunit of the purified complex m8; 6 copies in the rod; also called FlgC^1; FlgC^6
Turning to B2, in the data set with FliF [1], the binding result is “binds”.

B3: FliG (natural protein, UniProt P0A1J9 1-331, looked up)
chain: MSNLSGTDKSVILLMTIGEDRAAEVFKHLSTREVQALSTAMANVRQISNKQLTDVLSEFEQEAEQFAALNINANEYLRSVLVKALGEERASSLLEDILETRDTTSGIETLNFMEPQSAADLIRDEHPQIIATILVHLKRSQAADILALFDERLRHDVMLRIATFGGVQPAALAELTEVLNGLLDGQNLKRSKMGGVRTAAEIINLMKTQQEEAVITAVREFDGELAQKIIDEMFLFENLVDVDDRSIQRLLQEVDSESLLIALKGAEPPLREKFLRNMSQRAADILRDDLANRGPVRLSQVENEQKAILLIVRRLAETGEMVIGSGEDTYV
notes: FliG, flagellar motor switch protein of the C ring, Salmonella Typhimurium LT2; domains FliGN, FliGM, FliGCN, FliGCC; Subunit of the purified complex m8; 34 copies in the C ring; also called FliGN; FliGM
As to B3, the binding result with FliF [2] is given as “binds”. Further, the “stoichiometry N” value with FliM [3] is 1; in data set [4] it was 34.

B4: CheY D13K/Y106W (constitutively active double mutant) (natural protein)
chain: MADKELKFLVVDKFSTMRRIVRNLLKELGFNNVEEAEDGVDALNKLQAGGFGFIISDWNMPNMDGLELLKTIRADSAMSALPVLMVTAEAKKENIIAAAQAGASGWVVKPFTAATLEEKLNKIFEKLGM
notes: CheY, chemotaxis signal protein, gene amplified from genomic DNA of Salmonella enterica serovar Typhimurium LT2; double mutant D13K/Y106W; Tag linked through an HRV3C protease site; residues of the site may remain at the C-terminus after cleavage; Vector pET-14b; source: E. coli BL21 (DE3), purified (Streptactin column, PreScission protease digestion, Superdex 75); not shown: Twin-Strep-tag II, …
As to B4, the binding result in the data set with FliM [5] is given as “binds”. Also, the “stoichiometry N” value in data set [6] came out at 34.

B5: FliN (natural protein, UniProt P26419 1-137, looked up)
chain: MSDMNNPSDENTGALDDLWADALNEQKATTTKSAADAVFQQLGGGDVSGAMQDIDLIMDIPVKLTVELGRTRMTIKELLRLTQGSVVALDGLAGEPLDILINGYLIAQGEVVVVADKYGVRITDIITPSERMRRLSR
notes: FliN, flagellar motor switch protein of the C ring, Salmonella Typhimurium LT2; FliN1, FliN2 and FliN3 are the three copies in one protomer; Subunit of the purified complex m8; 102 copies in the C ring; also called FliN1; FliN2
On to B5, for which, in the data set with FliM [3], the “stoichiometry N” value worked out at 3. In addition, in data set [4], the binding result is listed as “binds”.
In the case of B6, the “stoichiometry N” value in data set [4] is 34.
Same read-out and setting: to B7 belongs 34.
